Data: the supplement of paper PMC10567573

B1: APBB1IP (parent)
chain: ADPVLDLPLPPPPPEPLSQVSMWD
B2: POMT2 (parent)
chain: VLRSRIRFIHLVTGCVLGSSGKVL
B3: SPATS1 (parent)
chain: GRKKYDIDPRNGIPKLTPGDNPYM

Variants of: B1
Assay: protein stability index of a GFP-peptide fusion (GPS, HEK-293T) (PSI 1-6); higher = more stable
Details: c terminus: a fixed tail appended
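Further: lentivirally expressed fusions sorted by FACS into six bins by GFP to DsRed ratio, PSI derived from sequencing read proportions per bin multiplied by bin number.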

| Variant | protein stability index |
| --- | --- |
| P11V | 4.43 |
| P11E | 4.69 |
| P11K | 4.69 |
| P13V | 3.84 |
| P13E | 4.96 |
| P13W | 3.8 |
| P13R | 4.37 |
| P13K | 4.6 |

Variants of: B2
Assay: as above
Details: c terminus: a fixed tail appended

| Variant | protein stability index |
| --- | --- |
| V23G | 3.42 |
| V23K | 2.21 |
| V23D | 3.41 |
| V23R | 1.46 |
| V23F | 1.77 |
| V23C | 2.37 |
| I9N | 2.64 |
| I9H | 4.48 |
| I9P | 1.42 |
| I9E | 2.34 |
| I9C | 1.74 |
| I9F | 1.85 |
| I9R | 1.39 |
| I9S | 2.78 |
| I9Q | 2.87 |
| I9W | 1.71 |
| I9M | 2.73 |
| L24H | 3.1 |
| L24N | 1.89 |
| L24R | 2.92 |
| L24S | 2.75 |
| L24E | 3.25 |
| L24G | 3.89 |
| L24M | 2.42 |
| F8D | 1.88 |
| F8H | 2.79 |

| Variant | protein stability index |
| --- | --- |
| F8R | 2.11 |
| F8C | 3.6 |
| F8W | 2.35 |
| F8G | 1.66 |
| F8I | 3.13 |
| F8Q | 1.67 |
| F8N | 1.9 |
| F8T | 2.35 |
| L11T | 3.02 |
| L11S | 3.27 |
| L11R | 1.73 |
| L11G | 2.18 |
| L11D | 2.48 |
| L11M | 1.68 |
| L11P | 2.4 |
| H10W | 2.63 |
| H10R | 2.5 |
| H10N | 2.3 |
| H10P | 3.05 |
| H10I | 3.35 |
| H10C | 2.67 |
| H10D | 2.56 |
| H10A | 2.56 |
| T13V | 3.37 |
| T13A | 2.01 |
| T13H | 2.02 |

| Variant | protein stability index |
| --- | --- |
| T13D | 2.35 |
| C15P | 2.12 |
| C15S | 3.04 |
| C15Y | 3.56 |
| C15W | 2.95 |
| C15A | 3.27 |
| C15K | 3.31 |
| C15E | 3.73 |
| C15V | 4.18 |
| C15I | 1.67 |
| C15T | 1.4 |
| C15N | 1.4 |
| C15F | 1.72 |
| L17G | 3.47 |
| L17D | 3.16 |
| L17R | 2.35 |
| L17V | 2.1 |
| L17I | 2.28 |
| L17P | 1.74 |
| L17A | 2.77 |
| L17W | 3.74 |
| L17S | 2.9 |
| R3C | 2.14 |
| R3T | 2.65 |
| R3M | 3.2 |
| R3P | 3.15 |

| Variant | protein stability index |
| --- | --- |
| R3S | 3.27 |
| R3A | 1.24 |
| R3N | 2.43 |
| R3F | 2.27 |
| R3E | 2.31 |
| V1W | 1.4 |
| V1H | 2.8 |
| V1I | 2.76 |
| V1T | 3 |
| V1L | 2.15 |
| V1S | 3.21 |
| V1G | 1.39 |
| V1A | 2.38 |
| V1D | 2.88 |
| V1K | 2.88 |
| V16H | 3.17 |
| V16E | 2.4 |
| V16F | 1.63 |
| V16C | 2.73 |
| V16I | 1.6 |
| V16W | 2.43 |
| V16L | 3.58 |
| V16M | 3.73 |
| V16D | 2.73 |
| V16Q | 2.89 |
| V16N | 3.21 |

| Variant | protein stability index |
| --- | --- |
| R5M | 2.92 |
| R5P | 3.07 |
| R5Y | 2.99 |
| R5F | 2.21 |
| R5H | 2.82 |
| R5E | 2.83 |
| R5G | 2.25 |
| R5V | 2.4 |
| R5D | 2.67 |
| R5S | 1.06 |
| G21R | 2.47 |
| G21I | 1.98 |
| G21Q | 3.44 |
| G21V | 2.17 |
| G21F | 2.53 |
| G21E | 3.64 |
| G21M | 3.38 |
| G21W | 2.96 |
| G21N | 2.47 |
| G21A | 2.99 |
| G21T | 2 |
| S4H | 2.09 |
| S4F | 2.29 |
| S4Q | 3.06 |
| S4Y | 3.18 |
| S4K | 3.75 |

| Variant | protein stability index |
| --- | --- |
| S4I | 2.53 |
| S4N | 4.14 |
| S4R | 2.66 |
| S4L | 3.33 |
| S4D | 2.56 |
| R7D | 1.59 |
| R7K | 3.58 |
| R7W | 2.28 |
| R7V | 2.05 |
| R7Y | 2.4 |
| R7N | 2.44 |
| R7L | 2.52 |
| R7E | 2.94 |
| R7G | 2.67 |
| R7T | 3 |
| R7M | 3.48 |
| R7H | 3.62 |
| S20D | 2.12 |
| S20E | 1.99 |
| S20Q | 3.58 |
| S20W | 2.12 |
| S20T | 3.42 |
| S20L | 2.12 |
| S20G | 2.08 |
| S20M | 1.28 |
| S20Y | 2.86 |

| Variant | protein stability index |
| --- | --- |
| S20F | 1.43 |
| S20V | 1.85 |
| S19A | 1.93 |
| S19L | 1.78 |
| S19K | 1.67 |
| S19P | 3.18 |
| S19F | 2.63 |
| S19M | 3.45 |
| S19N | 2.73 |
| S19I | 2.59 |
| S19G | 1.99 |
| S19C | 2.51 |
| S19W | 2.66 |
| S19D | 3.66 |
| S19V | 2.73 |
| L2M | 2.49 |
| L2S | 2.72 |
| L2N | 2.4 |
| L2A | 3.86 |
| L2R | 3.38 |
| L2F | 2.75 |
| L2H | 2.81 |
| L2I | 2.71 |
| L2C | 2.48 |
| L2P | 1.76 |
| L2D | 3.93 |

| Variant | protein stability index |
| --- | --- |
| V12W | 1.94 |
| V12T | 4.51 |
| V12S | 2.53 |
| V12N | 3.83 |
| V12H | 2.88 |
| V12G | 1.84 |
| V12K | 3.48 |
| V12Q | 1.05 |
| V12I | 2.81 |
| V12F | 3.19 |
| I6T | 1.3 |
| I6A | 1.64 |
| I6E | 2.45 |
| I6S | 1.83 |
| I6F | 3.11 |
| I6Y | 3.93 |
| I6M | 2.88 |
| I6C | 4.38 |
| I6K | 2.08 |
| K22D | 3.31 |
| K22C | 2.73 |
| K22V | 3.02 |
| K22H | 2.37 |
| K22P | 1.99 |
| K22Y | 2.74 |
| K22F | 2.53 |

| Variant | protein stability index |
| --- | --- |
| K22W | 3.35 |
| G18D | 1.67 |
| G18T | 2.14 |
| G18V | 1.38 |
| G18R | 2.35 |
| G18A | 2.35 |
| G18M | 2.78 |
| G18L | 2.69 |
| G18S | 3.06 |
| G14K | 3.83 |
| G14T | 2.33 |
| G14Y | 3.68 |
| G14D | 1.88 |
| G14I | 3.23 |
| G14R | 2.85 |
| G14F | 3.15 |
| G14S | 3.28 |
| G14N | 2.11 |
| G14E | 1.96 |
| G14P | 2.97 |
| G14L | 2.46 |

Variants of: B3
Assay: as above
Details: c terminus: a fixed tail appended

| Variant | protein stability index |
| --- | --- |
| R2N | 3.44 |
| R2D | 4.13 |
| R2M | 3.37 |
| R2I | 3.25 |
| R2L | 3.12 |
| R2H | 3.85 |
| R2Q | 3.59 |
| R2P | 3.73 |
| R2E | 4.15 |
| R2Y | 3.15 |
| R2V | 3.73 |
| R2G | 3.39 |
| R2K | 3.61 |
| R2C | 3.3 |
| R2F | 3.4 |
| R2S | 3.66 |
| R2T | 3.15 |
| R2A | 3.51 |
| R2W | 2.73 |
| D6C | 2.89 |
| D6A | 3.26 |
| K3G | 3.53 |
| K3C | 2.29 |
| K3A | 3.2 |
| K3L | 3.19 |

| Variant | protein stability index |
| --- | --- |
| K3P | 3.29 |
| K3S | 3.25 |
| K3D | 4.24 |
| K3Q | 3.8 |
| K3V | 3.67 |
| K3W | 2.91 |
| K3R | 3.27 |
| K3M | 3.2 |
| K3H | 3.67 |
| K3N | 3.32 |
| K3I | 3.39 |
| K3F | 2.83 |
| K3Y | 2.77 |
| K3E | 3.79 |
| K3T | 3.73 |
| G1L | 2.96 |
| G1A | 3.48 |
| G1P | 3.51 |
| G1Q | 3.52 |
| G1M | 3.12 |
| G1R | 3.93 |
| G1D | 3.85 |
| G1V | 3.68 |
| G1W | 2.78 |
| G1N | 3.54 |

| Variant | protein stability index |
| --- | --- |
| G1T | 3.4 |
| G1E | 3.96 |
| G1Y | 3.31 |
| G1F | 2.88 |
| G1S | 3.65 |
| G1I | 2.66 |
| G1C | 2.83 |
| G1H | 3.25 |
| G1K | 3.25 |
| K4H | 3.2 |
| K4Y | 3.22 |
| K4I | 3.33 |
| K4C | 2.81 |
| K4G | 3.71 |
| K4W | 3.03 |
| K4N | 3.88 |
| K4M | 3.5 |
| K4V | 3.29 |
| K4E | 4.1 |
| K4S | 3.83 |
| K4A | 3.38 |
| K4T | 3.48 |
| K4R | 3.19 |
| K4Q | 3.23 |
| K4F | 2.62 |

| Variant | protein stability index |
| --- | --- |
| K4D | 3.83 |
| K4P | 3.52 |
| K4L | 2.91 |
| Y5T | 4.11 |
| Y5E | 4.86 |
| Y5D | 4.64 |
| Y5K | 4.23 |
| Y5I | 3.4 |
| Y5W | 2.92 |
| Y5V | 4.04 |
| Y5F | 3.51 |
| Y5L | 4.43 |
| Y5S | 4.36 |
| Y5C | 4.08 |
| Y5A | 4.14 |
| Y5N | 3.93 |
| Y5P | 3.38 |
| Y5H | 3.88 |
| Y5G | 4.44 |
| Y5Q | 4.27 |
| Y5M | 3.65 |
| Y5R | 4.07 |
